Measured values from the supplement of paper PMC9170038.

Key:
MS2 coat protein [1] = test: apparent KD of MS2 coat protein, switch OFF state (with FMN for OFF switches, without FMN for ON switches); designed switch direction (-1 OFF switch, 1 ON switch): -1; higher = weaker reporter binding; settings: FMN input: 0 or 200 uM; Eterna round: R93 (includes R88 designs)
In short: (§1)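 Illumina sequencing clusters were used for on-chip transcription of designed RNA switches. Titration with SNAP-549-labelled MS2 coat protein followed, in twofold steps from 0.7 or 1.5 nM to 3 µM in 100 mM Tris-HCl pH 7.5, 80 mM KCl, 4 mM MgCl2, without or with constant ligand. Apparent KD is each design's median of fits to normalised cluster binding curves.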

MS2 coat protein [2] = test: apparent KD of MS2 coat protein, switch ON state; designed switch direction (-1 OFF switch, 1 ON switch): -1; higher = weaker reporter binding; settings: FMN input: 0 or 200 uM; Eterna round: R93 (includes R88 designs)
In short: as §1

MS2 coat protein [3] = test: apparent KD of MS2 coat protein; designed switch direction (-1 OFF switch, 1 ON switch): 1; higher = weaker reporter binding
In short: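 The apparent KD reported per design is the median over clusters of curve fits to normalised cluster fluorescence. The RNA switches were transcribed on Illumina chips by stalled E. coli RNA polymerase. SNAP-549-labelled MS2 coat protein was titrated from 0.7 or 1.5 nM, doubling up to 3 µM, in Tris-HCl pH 7.5 buffer containing KCl, MgCl2, BSA, DTT, tRNA and Tween-20, with no input, 200 uM small-molecule ligand, or an oligonucleotide input.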

[4] = input ligand: microRNA oligo, concentration not stated

| Sequence | apparent KD of MS2 coat protein (MS2 coat protein [1]) [µM] | apparent KD of MS2 coat protein (MS2 coat protein [2]) [µM] | also measured |
| --- | --- | --- | --- |
| AACUGACAUGAGGAUCACCCAUGUCAGGAUAUGAUUUGACGAAAAAAAAAAAGUCAUAUCAGAAGGGACAUGGG [Design 82: Sub-opt V] | 0.0176 | 0.019 |  |
| AAGAAGGUAGGAUAUACAUGAGGAUCACCCAUGUAAAAGAAAGAGGGAAAAGAGAAAAGUAGAAGGACCAAGAA [Ankhmakis] | 0.0501 | 0.0343 |  |
| AAAAAGCGAGGAUAUACAUAGCUAAGACAUGUAAGCGAAAAACAUGAGGAUCACCCAUGUAGAAGGCGCAAAAA [Exclusion2-02] | 0.0165 | 0.0168 |  |
| AAAAAGUCAGGAUAUGUCAAAAGUCACAAAAGUGACAAAAGACAGAAGGGACAUGAGGAUCACCCAUGUGGAAA [Mod of Eli - Late G segment 1] | 0.134 | 0.0893 |  |
| UACAUACAUGAGGAUCACCCAUGUCAGGAUAUGUGCUCAGUGAAAAACAAAGAAACAAGCAGAAGGGACACUAA [JR_Exc001_Sub203] | 0.0375 | 0.0418 |  |
| AAAAAGGCAGGAUAUACAUGAGGAUCACCCAUGUAAAAAAAAACAAGAGAAAAAAAAUGUAGAAGGGCCAAAAA [Ex3 Malc#3] | 0.026 | 0.0268 |  |
| AACAAGACAGGAUAUACAUGAGGAUCACCCAUGUCACAACAAAGCAGCGCAACACAAAGUAGAAGGGUCAUGAA [Ruby 12] | 0.0469 | 0.0451 |  |
| AAAAAACAUGAGGAUCACCCAUGUGAGGAUAUCCUGAAGGGAAUAAAAUAACUCGAAAGGAGAAGGCGCAAAAA [Ex 1 May 32] | 0.033 | 0.0352 |  |
| AUAGUACAUGAGGAUCACCCAUGUCAGGAUAUUGGAUAUGACAUGAAAAAAAUGUUAACGAGAAGGGACUAUAA [EX1 Malc#17] | 0.0807 | 0.0586 |  |
| AAAAAACAUGAGGAUCACCCAUGUCAGGAUAUCGUAAAAAAAAAAAAAAAAAAAAAUGCGAGAAGGGACUGGAA [exclusion1-cac2] | 0.0945 | 0.0869 |  |
| CUUAUGUGAGGAUAUCAGUAGUAAAAAAAAAAAAUUACUACUGAGAAGGCACAUGAGGAUCACCCAUGUGCAUU [EX4 322: Super Stable 22] | 0.0388 | 0.0303 |  |
| AAAAUGUCAGGAUAUGUAAAAAAAAAAAAAAAAAAAAAAAUACAGAAGGGACAUGAGGAUCACCCAUGUCAGGG [EX4 390: Minimal 2] | 0.079 | 0.113 |  |
| AAGAAACAUGAGGAUCACCCAUGUGAGGAUAUAGAAAAGAAAAGAAAAGAAAGAAGAACUAGAAGGCACAAAGG [Neferkare (IV) Khendu] | 0.0288 | 0.0311 |  |
| CAGUACUGAGGAUAUACAUGAGGAUCACCCAUGUGAUCAAGCUACGAAAGUAGCAAAUGUAGAAGGCAGUACUG [Ex3: 809] | 0.0317 | 0.0407 |  |
| AAAACGAUAGGAUAUACAUGAGGAUCACCCAUGUUAAAAUGUAGAAGGCUGAAAAAAAGUAGAAGGAUCAAAAA [EXC - 3] | 0.0344 | 0.0295 |  |
| GCCGCGUUUCGCGCCUACAUGAGGAUCACCCAUGUUUGUAGGCAGGAUAUCGUCCGCUCUGCGGGCGAGAAGGGCUGUUGUGGC [salish99_SSNG3_R04_022] (Eterna round: R96, puzzle: Same State NG 3) |  |  | apparent KD of MS2 coat protein (MS2 coat protein [3]; input ligand: FMN 200 uM): 0.0412 µM; apparent KD of MS2 coat protein (MS2 coat protein [3]; [4]): 0.0367 µM; apparent KD of MS2 coat protein (MS2 coat protein [3]; input ligand: none): 0.0515 µM |
| UCUUGGUUUUUGCUCGUUUUUUGUGUUGAACAUGAGGAUCACCCAUGUAUUGUACGGUCCGGUUUGAUGAUGGUCCA [JMF 46] (puzzle: Sensor for hsa-mir-208a) |  |  | apparent KD of MS2 coat protein (MS2 coat protein [3]; Eterna round: R95, input ligand: FMN 200 uM): 0.0356 µM; apparent KD of MS2 coat protein (MS2 coat protein [3]; Eterna round: R95, input ligand: microRNA oligo, concentration not stated): 0.0239 µM; apparent KD of MS2 coat protein (MS2 coat protein [3]; Eterna round: R95, input ligand: none): 0.0383 µM |
| AGAGGAGGAGCAGGAUAUGCGAAGAAGAACGUGGUAGAAGGGCUCAUGCGAUGACAUGAGGAUCACCCAUGUACCUCGCGAGGA [AK SSNG1-V2-9] (Eterna round: R96, puzzle: Same State NG 1) |  |  | apparent KD of MS2 coat protein (MS2 coat protein [3]; input ligand: FMN 200 uM): 0.414 µM; apparent KD of MS2 coat protein (MS2 coat protein [3]; [4]): 0.13 µM; apparent KD of MS2 coat protein (MS2 coat protein [3]; input ligand: none): 0.185 µM |
